These results are taken from patent publication US20210179726A1 (DINGFU BIOTARGET, published 2021).

Positions count from the first letter of the chain named.

For assay [1], the target named is T1, hCD137-EGFP on HEK293 cells (human, UniProt Q07011 24-255).
T1 construct: EGFP fusion expressed on transfected HEK293 cells; also called human CD137
In words: FACS dot plot on CD137-EGFP HEK293 cells, anti-human Ig-APC secondary. The procedure: (§1) The hCD137-EGFP, hOX40-EGFP and hGITR-EGFP cells as described in Example 1 were washed twice in PBS, 10 μg/ml of each chimeric antibody as prepared in Example 3 (m2E7, m2B8, m4H3, m3E7, m1A8, m4G1, m2G3, m2F11 and m3B8) was added to each type of cells and incubated at 4° C. for 30 min. Then it was washed twice with PBS, anti-human Ig-APC (Jackson ImmunoResearch Laboratories, Cat #109-135-098) was added and were incubated at 4° C. for 30 min, washed twice with PBS and resuspended in 300 μl PBS. In FIG. 2, NC represents negative control (PBS), a-hlg-APC represents secondary antibody only, the other panels represent results obtained with each of the corresponding clone, respectively.

The target of assay [2] is T2, hOX40-EGFP on HEK293 cells (human, UniProt P43489 29-277).
T2 construct: EGFP fusion expressed on transfected HEK293 cells; also called human OX40
T2 sequence (looked up): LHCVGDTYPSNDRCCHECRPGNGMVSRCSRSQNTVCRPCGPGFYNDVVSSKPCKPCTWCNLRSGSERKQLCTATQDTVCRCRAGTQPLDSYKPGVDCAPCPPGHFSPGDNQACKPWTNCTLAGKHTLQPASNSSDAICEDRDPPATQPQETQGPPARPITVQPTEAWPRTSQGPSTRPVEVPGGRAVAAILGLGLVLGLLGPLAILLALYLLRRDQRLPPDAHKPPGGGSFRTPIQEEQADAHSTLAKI
Description: FACS dot plot on OX40-EGFP HEK293 cells, anti-human Ig-APC secondary. The procedure:
as §1

Assay [3] has as its target T3, hGITR-EGFP on HEK293 cells (human, UniProt Q9Y5U5 26-241).
T3 construct: EGFP fusion expressed on transfected HEK293 cells; also called human GITR
T3 sequence (looked up): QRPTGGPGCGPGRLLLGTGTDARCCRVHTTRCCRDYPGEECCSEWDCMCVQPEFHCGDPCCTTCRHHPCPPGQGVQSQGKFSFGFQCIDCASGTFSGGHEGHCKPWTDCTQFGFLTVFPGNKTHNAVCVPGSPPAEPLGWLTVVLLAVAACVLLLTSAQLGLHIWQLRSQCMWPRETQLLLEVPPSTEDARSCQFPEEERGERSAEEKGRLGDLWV
In words: FACS on hGITR-EGFP HEK293 cells. On the procedure: as §1

Assay [4] concerns the target T2, hOX40-EGFP on HEK293 cells. Description: FACS on hOX40-EGFP HEK293 cells. The procedure: as §1
For assay [5], the target named is T1, hCD137-EGFP on HEK293 cells. In words: FACS on hCD137-EGFP HEK293 cells. The procedure:
as §1

In assay [6] the target is T4, hCD27-EGFP on HEK293 cells (human, UniProt P26842 20-260).
T4 construct: EGFP fusion expressed on transfected HEK293 cells; also called CD27-EGFP cells; cell surface CD27
T4 sequence (looked up): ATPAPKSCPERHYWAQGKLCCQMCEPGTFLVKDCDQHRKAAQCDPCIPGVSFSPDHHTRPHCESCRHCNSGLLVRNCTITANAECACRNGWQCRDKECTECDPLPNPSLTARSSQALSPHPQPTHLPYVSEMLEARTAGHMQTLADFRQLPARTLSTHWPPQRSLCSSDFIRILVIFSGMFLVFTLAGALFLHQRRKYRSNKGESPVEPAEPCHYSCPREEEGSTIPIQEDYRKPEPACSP
Description: FACS titration on CD27-EGFP HEK293 cells, 8 three-fold dilutions from 20 µg/ml, anti-human Ig-APC secondary, MFI; table drawn under the plot, unit from the x axis; no upper plateau reached. The procedure:
Based on the above results of ELISA, 7 humanized antibodies were selected to examine their affinities to cell surface CD27. Briefly, 5×10⁵ CD27-EGFP cells prepared in Example 1 were washed twice in PBS, each of the humanized antibodies (d16647, d12996, d9419, 14822, 9424, d14822, d12674) was added. The antibodies were subjected to 3-fold serial dilution, starting from 20 μg/ml, to obtain 8 gradient dilutions for each antibody. The antibodies and the cells were incubated at 4° C. for 30 min. Then, it was washed twice with PBS, anti-human Ig-APC (Jackson ImmunoResearch Laboratories, Cat #109-135-098) was added, and incubated at 4° C. for 30 min, washed twice with PBS and resuspended in 300 μl PBS. Flow cytometry was then performed, and the results are shown in FIG. 6. m2F11 was used as a control.

The target in assay [7] is T5, hCD27-muFc (human; mouse, UniProt P26842 20-192).
T5 construct: range 1-192; Secreted from HEK293, Protein A purified; not shown: mouse IgG1-Fc (muFc), residues 98 to 324 of UniProt P01868
T5 sequence (looked up): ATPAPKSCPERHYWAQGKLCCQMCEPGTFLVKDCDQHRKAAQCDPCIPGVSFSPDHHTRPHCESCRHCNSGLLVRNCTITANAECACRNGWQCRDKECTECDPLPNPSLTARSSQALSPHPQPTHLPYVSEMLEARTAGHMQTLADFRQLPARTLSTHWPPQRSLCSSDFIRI
Description: ELISA, plate coated with hCD27-muFc, Test 1. The procedure: (§2) The ELISA plate was coated with 2 μg/ml hCD27-muFc, 100 μl/well and incubated at 4° C. overnight. Then it was washed once with 10 mM, pH 7.4 PBS/Tween (0.05%), blocked with PBST containing 5% skimmed milk powder and incubated at 37° C. for 2 h. After washing the plate for 4 times, the humanized antibodies were added and incubated at 37° C. for 40 min, then it was washed for 4 times. Anti-human IgG-HRP-conjugated secondary antibody (Sigma, Cat #A0170-1M) was added and incubated at 37° C. for 40 min. After washing, the plate was developed with TMB substrate and spectrophotometric analysis was performed at OD₄₅₀. In FIGS. 5A-5B, each curve represents the binding result obtained for one of the humanized antibodies. From the results, it can be seen that all these humanized antibodies could bind to human CD27.
(An ELISA detects its analyte on a solid surface through an enzyme-linked reagent.)

In assay [8] the target is T5, hCD27-muFc. Description: BLI (Octet K2), antibody on Protein A biosensor, hCD27-muFc in solution. On the procedure:
Using the BLI method, each humanized antibody was immobilized on a Protein A biosensor at a concentration of 10 μg/ml, while hCD27-muFc was subjected to 2-fold serial dilution, starting from 100 nM, to obtain 5 gradient dilutions for each antibody. The reaction plate was placed on the Octet K2 instrument. The parameters were set to Baseline 70 s, Association 80 s, Dissociation 300 s, Baseline 260 s, Loading 40 s, and Custom 5 s.
On the technique in general: BLI is a label-free optical method that tracks binding on a fibre tip over time.

The target in assay [9] is T5, hCD27-muFc. In words: ELISA, plate coated with hCD27-muFc, Test 2. The procedure: as §2

T1 sequence (Q07011 24-255): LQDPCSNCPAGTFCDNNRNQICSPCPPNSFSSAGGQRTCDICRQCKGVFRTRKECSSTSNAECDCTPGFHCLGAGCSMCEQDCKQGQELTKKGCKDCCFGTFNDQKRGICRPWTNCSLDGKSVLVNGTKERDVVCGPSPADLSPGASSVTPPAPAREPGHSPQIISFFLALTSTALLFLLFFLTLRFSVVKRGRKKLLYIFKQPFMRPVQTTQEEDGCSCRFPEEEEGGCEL

B1: m2E7 (antibody, human IgG1, V domains shown)
VH: EVQLQESGPELKKPGETVKISCKASGYTFTTYGMSWVKQAPGKGLQWMGWINTNSGVPTYVEDFKGRFAFSLESSANTAYLQINNLKNEDTAIYFCTREGDALDYWGQGTSVTVSS
VL: DIVMTQSTAIMSASPGEKVTMTCSASSSVSYMHWYQQKSGTSPRRWIYDTSRLASGVPARFSGSGSGTSYSLTISSMEAEDAATYYCQQWSNTPPFTFGAGTKLELK
notes: also called clone 2E7; not shown: human IgG1 constant region, UniProt P01857
For B1, the binding result in assay [1], in assay [2] and in [3] was “no binding (tested: 10 µg/ml)” each time.

B2: m1A8 (antibody, human IgG1, V domains shown)
VH: EVQLQESGAELVKPGASVKLSCKASGYSFTSSWMHWVKQRPGQGLEWIGMIHPDSGFTNYNEKFKSKATLTVDKSSSTAYMRLSSLTSEDSAVYYCARTSYYDTSYTSMDFWGQGNSVTVSS
VL: DIVLTQSPAILSVSPGERVSFSCRASQSIGTSIHWYQQRTNGSPRLLIKYASESISGIPSRFSGSGSGTDFTLSINSVESEDIADYYCQQSNSWPLTFGAGTKLELK
notes: Chimeric antibody: mouse VH/VL on human IgG1 / human kappa constant regions; also called clone 1A8; not shown: human IgG1 constant region, UniProt P01857
Regarding B2, the binding result in [4], in assay [5] and in assay [3] was “no binding (tested: 10 µg/ml)” each time.

B3: m4H3 (antibody, human IgG1, V domains shown)
VH: QVQLQQSGPELVKPGASVKISCKASGYSFTAYNINWVKQTNGKSLEWIGIINPNYGTTSYNQKFKGKATLTVDQSSSTAYMQLNSLTSEDSAVYYCARRNGDYVGYAMDSWGQGTSVTVSS
VL: B2 VL with I33M, T40K, S91T, S93N, L96W, A100G, L106F
notes: Chimeric antibody: mouse VH/VL on human IgG1 / human kappa constant regions; also called clone 4H3; not shown: human IgG1 constant region, UniProt P01857
As to B3, the binding result in assay [4], in assay [5] and in assay [3] was “no binding (tested: 10 µg/ml)” throughout.

B4: m4G1 (antibody, human IgG1, V domains shown)
VH: QVQLQQSGPELVKPGASVKISCKASGYSFTAYNMNWVKQSKGKSLEWIGLINPNYATTSYNQKFKDKATLTVDQSSSTAYMQLNSLTSEDSAVYYCAYYSYYSYGGGYAMDYWGQGTSVTVSS
VL: B2 VL with V3L, T72I, L96W, A100G, K103R, L106I
notes: Chimeric antibody: mouse VH/VL on human IgG1 / human kappa constant regions; also called clone 4G1; not shown: human IgG1 constant region, UniProt P01857
In the case of B4, the binding result in assay [4], in [5] and in [3] was “no binding (tested: 10 µg/ml)” each time.

B5: m2F11 (antibody, human IgG1, V domains shown)
VH: EVQLQESGGDLVKPGGSLKLSCAASGFTFSSYAMSWVRQTPEKRLEWVAIIGDGDTYTYYPDSVKGRFTVSRDNAKNNLYLQMSHLKSEDTAMYYCVRTRGGPFDYWGQGTTLTVSS
VL: DIVLTQTPALMSASPGEKVTMTCSASSSVGSMHWYQQKSGTSPKRWIYDTSKLASGVPARFSGSGSGTSYSLTISSMEAEDAATYYCQQWSSIPPTFGAGTTLELK
notes: Chimeric antibody: mouse VH/VL on human IgG1 / human kappa constant regions; Parent of the humanized antibodies; also called clone 2F11; not shown: human IgG1 constant region, UniProt P01857
Regarding B5, the LogEC50 in [6] was 0.417 Log10(ug/ml). Besides, the binding result in assay [1], in assay [2] and in assay [3] was “no binding (tested: 10 µg/ml)” in each case. The results for the concentration for a half-maximal effect (EC50) in the assay with hCD27-muFc [7] and with hCD27-muFc [9] were 0.0315 µg/mL and 0.0279 µg/mL, respectively. The Kd – broadly, the concentration at which binding is half-saturated – with hCD27-muFc [8] came out at 835 pM. In addition, in the assay with hCD27-muFc [8], the koff (commonly the rate constant with which the complex falls apart) stood at 0.000108 s⁻¹. The kon (commonly a measure of how fast the partners come together) in the assay with hCD27-muFc [8] came to 130000 M⁻¹ s⁻¹.

B6: m2G3 (antibody, human IgG1, V domains shown)
VH: EVKLQESGGGLVKPGGSLKLSCAASGFTFSSFAMSWIRQTPEKRLEWVAAISDGGTYTYYPNNVKGRFTISRDDAKNNLYLQMSHLKSEDTAMYYCVRNRGGPFDYWGQGTTLTVSS
VL: B5 VL with T7S, L10I, G30S, S31Y, H33N, A59V, S91N, I93N, T102K
notes: Chimeric antibody: mouse VH/VL on human IgG1 / human kappa constant regions; also called clone 2G3; not shown: human IgG1 constant region, UniProt P01857
As to B6, the binding result in assay [1], in [2] and in assay [3] was “no binding (tested: 10 µg/ml)” throughout.

B7: m2B8 (antibody, human IgG1, V domains shown)
VH: EVQLQESGGGLVQPKGSLKLSCAASGFNFNTYTMNWVRQAPGKGLEWVARIRYKSNNYATYYADSVKDRFTISRDDSESILYLQMNNLRTDDTAIYFCVRELGLWYFDVWGAGTTVTVSS
VL: DIVMTQSPSYLAASPGETITINCRASKSISKYLAWYREKPGKTNNLLIYSGSTLQSGIPSRFSGSGSGTDFTLTISSLEPEDFAMYYCQQHNEYPLTFGAGTKLELK
notes: Chimeric antibody: mouse VH/VL on human IgG1 / human kappa constant regions; also called clone 2B8; not shown: human IgG1 constant region, UniProt P01857
For B7, the binding result in assay [4], in [5] and in [3] was “no binding (tested: 10 µg/ml)” throughout.

B8: m3B8 (antibody, human IgG1, V domains shown)
VH: QVQLQESGPGLVAPSQSLSITCTVSGFSLTNYAVSWVRQPPGKGLEWLGVIWGDGTTNYHSALISRLIISKDNSKSQVFLKLNSLQTDDTATYYCAKEGDYGDYVGWFAYWGQGTLVTVSA
VL: DIVLTQSPASLAVSLGQRATISCRASESVEYYGTSLMQWYQQKPGQPPKLLIYAASNVESGVPARFSGSGSGTDFSLNIHPVEEDDFAMYFCQQSRKIPYTFGGGTKLEIK
notes: Chimeric antibody: mouse VH/VL on human IgG1 / human kappa constant regions; also called clone 3B8; not shown: human IgG1 constant region, UniProt P01857
Take B8: the binding result in assay [1], in [2] and in assay [3] was “no binding (tested: 10 µg/ml)” throughout.
